The record followed here is patent US20240293518A1 (HEALTH RESEARCH, published 2024).

By Kd is commonly meant the concentration at which binding is half-saturated.

Assay [1] addresses ErbB2/delD4, human ErbB2 with deletion of ECD subdomain 4 (deletion of amino acids 489-560) (human) (UniProt P04626). Nature of the assay: ELISA; panel e; cell lysates. The settings on record: ligand.
Assay [2] concerns the target ErbB2/delD2, human ErbB2 with deletion of ECD subdomain 2 (deletion of amino acids 196-320) (human) (UniProt P04626). Put plainly: ELISA; panel e; cell lysates. The settings on record: ligand.
The target of assay [3] is T1, ErbB2 p95 fragment (minus ECD) (human, UniProt P04626 648-1255, limits assumed).
T1 construct: domain: trans-membrane and intracellular regions (p95 fragment, minus ECD); Generated in CHO-K1/ErbB2 cells by 1 mM APMA for 0.25 h and tested in cell lysates; also called trans-membrane and intracellular regions of ErbB2
Put plainly: co-immunoprecipitation with a PEPD antibody from lysates of APMA-treated CHO-K1/ErbB2 cells, western blot. On the procedure: FIG. 8. Data showing validation of a cell line used in the present disclosure, and lack of binding of PEPD to the transmembrane and intracellular regions of human ErbB2. (a) CHO-K1 cells were transiently transfected with an ErbB2-expressing plasmid (pCMV6-XL5-ERBB2) or the empty plasmid for 24 h. Human bladder cancer RT-4 cells and human breast cancer MCF-7 cells were untreated and were used as positive controls for ErbB1, ErbB3 and ErbB4. Cell lysates were analyzed by western blotting. GAPDH is a loading control. (b) CHO-K1 cells stably expressing ErbB2 (CHO-K1/ErbB2 cells) were treated with 1 mM APMA for 0.25 h. Cell lysates were then prepared and analyzed by western blotting (the first lane on the right). The same cell lysates were mixed with 1 μM PEPD, which were then incubated with a PEPD antibody or an isotype-matched IgG, pulled down with protein G-agarose, and analyzed by western blotting.
Immunoprecipitation. PEPD was incubated with ErbB2/ECD-Fc, ErbB3/ECD-Fc, ErbB4/ECD-Fc or Fc in binding buffer for 2 h at 37° C., followed by pull down with protein G-sepharose beads. The immunoprecipitates were washed with IP washing buffer and analyzed by western blotting. […] The immunoprecipitates were washed with IP washing buffer and analyzed by western blotting.
On the technique in general: A western blot detects proteins with antibodies after separation by electrophoresis.

Assay [4] addresses T2, ErbB4/ECD-Fc, chimera of the ECD (Gln26-Arg649) of human ErbB4 and the Fc (human, UniProt Q15303 26-649).
T2 construct: range 26-649; Bought from R&D Systems; also called human ErbB4/ECD-Fc; R&D Systems 1131-ER-050; not shown: Fc (of human IgG1)
T2 sequence (looked up): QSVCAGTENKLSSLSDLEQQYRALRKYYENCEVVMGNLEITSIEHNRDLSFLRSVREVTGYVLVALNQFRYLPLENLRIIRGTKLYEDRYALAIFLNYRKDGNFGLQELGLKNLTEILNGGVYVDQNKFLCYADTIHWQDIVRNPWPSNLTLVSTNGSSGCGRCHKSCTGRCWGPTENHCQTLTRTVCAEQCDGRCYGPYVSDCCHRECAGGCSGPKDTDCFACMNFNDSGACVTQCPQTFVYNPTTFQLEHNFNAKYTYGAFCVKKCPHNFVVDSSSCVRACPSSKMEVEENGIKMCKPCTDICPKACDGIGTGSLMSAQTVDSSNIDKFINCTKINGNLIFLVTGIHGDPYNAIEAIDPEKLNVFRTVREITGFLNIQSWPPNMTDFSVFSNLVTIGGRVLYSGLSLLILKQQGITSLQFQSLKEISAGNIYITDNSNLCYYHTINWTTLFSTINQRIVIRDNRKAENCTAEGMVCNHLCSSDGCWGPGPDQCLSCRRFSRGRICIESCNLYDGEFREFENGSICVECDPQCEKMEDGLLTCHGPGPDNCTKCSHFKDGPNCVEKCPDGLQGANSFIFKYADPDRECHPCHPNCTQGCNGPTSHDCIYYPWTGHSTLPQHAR
Put plainly: pull-down with protein G-sepharose, SDS-PAGE, silver stain. On the procedure:
(§1) Similar protein expression levels of ErbB2 and its mutants were detected in CHO-K1 cells transiently transfected with the plasmids (FIG. 1d). An equal amount of ErbB2 and its mutants, based on western blot quantification, were used in the same ELISA mentioned above. […] Thus, PEPD bound to D3, but D2 and D4, the latter in particular, may facilitate PEPD binding to ErbB2.
(§2) Immunoprecipitation. PEPD was incubated with ErbB2/ECD-Fc, ErbB3/ECD-Fc, ErbB4/ECD-Fc or Fc in binding buffer for 2 h at 37° C., followed by pull down with protein G-sepharose beads. […] For detection of direct and specific binding of PEPD or NRG-1 to ErbB2, ErbB3 or ErbB4, recombinant human PEPD or NRG-1 was incubated with recombinant human ErbB2/ECD-Fc, recombinant human ErbB3/ECD-Fc, recombinant human ErbB4/ECD-Fc or recombinant human Fc in 0.4 ml binding buffer. All solutions were incubated for 2 h at 37° C., followed by incubation with protein G-sepharose beads for 1 h at room temperature. […] In experiments using whole cell lysates, cells were lysed in M-PER buffer supplemented with a proteinase inhibitor mix (Roche Applied Science), and the lysates were incubated with a specific antibody overnight at 4° C., followed by pull down by protein G-agarose. […]

The target in assay [5] is T3, ErbB3/ECD-Fc, chimera of the ECD (Ser20-Thr643) of human ErbB3 and Fc (human, UniProt P21860 20-643).
T3 construct: range 20-643; Bought from R&D Systems; also called human ErbB3/ECD-Fc; R&D Systems 348-RB-050; not shown: Fc (of human IgG1)
T3 sequence (P21860 20-643 limits assumed, change not shown): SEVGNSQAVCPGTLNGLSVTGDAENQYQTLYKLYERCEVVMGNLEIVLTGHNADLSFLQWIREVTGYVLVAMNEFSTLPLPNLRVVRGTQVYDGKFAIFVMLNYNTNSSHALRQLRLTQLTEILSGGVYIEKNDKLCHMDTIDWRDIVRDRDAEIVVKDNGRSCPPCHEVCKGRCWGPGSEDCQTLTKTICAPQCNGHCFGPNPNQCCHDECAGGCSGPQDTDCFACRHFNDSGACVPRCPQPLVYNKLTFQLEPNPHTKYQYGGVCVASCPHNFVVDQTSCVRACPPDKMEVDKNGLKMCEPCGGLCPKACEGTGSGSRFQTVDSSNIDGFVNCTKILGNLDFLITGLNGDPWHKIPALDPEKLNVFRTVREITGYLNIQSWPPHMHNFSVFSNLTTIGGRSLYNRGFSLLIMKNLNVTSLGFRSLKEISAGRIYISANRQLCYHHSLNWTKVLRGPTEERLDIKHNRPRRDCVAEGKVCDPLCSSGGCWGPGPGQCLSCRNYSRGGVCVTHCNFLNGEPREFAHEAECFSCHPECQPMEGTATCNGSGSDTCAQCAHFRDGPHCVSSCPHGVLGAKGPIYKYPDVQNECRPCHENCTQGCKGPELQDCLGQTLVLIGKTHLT
Described as above. The method, then: as §1, §2

Assay [6] deals with T4, ErbB2/delD2, human ErbB2 with deletion of ECD subdomain 2 (deletion of amino acids 196-320) (human, UniProt P04626 23-1255).
T4 construct: whole, on cells; Transiently expressed in CHO-K1 cells; also called pCMV6-XL5-ERBB2/delD2
Nature of the assay: ELISA, equal amounts of ErbB2 and mutants from lysates of transfected CHO-K1 cells.
From the text: as §1, with “Overexpression of human ErbB2 in CHO-K1 cells was readily achieved by gene transfection (FIG. 1b). […] Next, we removed the four ECD subdomains of human ErbB2 one at a time (FIG. 1d), using the ErbB2-expressing plasmid pCMV6-XL5-ERBB2 as a template. Similar” for “Similar”
(§3) ELISA-based measurement of PEPD and PEPD binding to ErbB2. To measure PEPD binding to human ErbB2 or its deletion mutants, ELISA plates were coated overnight at 4° C. with 100 μl/well of an ErbB2 antibody (binding to the cytoplasmic tail of ErbB2) at 10 μg/ml. After washing the wells three times with PBST, residual protein binding sites in the wells were blocked by incubation for 2 h at room temperature with 300 μl/well of 1% BSA in PBS. […] After three washes with PBST, 100 μl of a biotin-conjugated anti-His antibody (1:10,000 dilution; note that PEPD is His-tagged) was added to each well and incubated for 2 h at room temperature.

Assay [7] concerns the target T5, ErbB2/delD4, human ErbB2 with deletion of ECD subdomain 4 (deletion of amino acids 489-560) (human, UniProt P04626 23-1255).
T5 construct: whole, on cells; Transiently expressed in CHO-K1 cells; also called pCMV6-XL5-ERBB2/delD4
Described as above.
From the text: as §1, with “Overexpression of human ErbB2 in CHO-K1 cells was readily achieved by gene transfection (FIG. 1b). […] Next, we removed the four ECD subdomains of human ErbB2 one at a time (FIG. 1d), using the ErbB2-expressing plasmid pCMV6-XL5-ERBB2 as a template. Similar” for “Similar”
as §3

The target in assay [8] is T6, Human ErbB2, wild type, full length (human, UniProt P04626 23-1255).
T6 construct: whole, on cells; Three sources: CHO-K1 cells transiently transfected with pCMV6-XL5-ERBB2, CHO-K1/ErbB2 cells expressing it stably, and BT-474 cells where it is endogenous; The ELISA and the immunoprecipitations used cell lysates; The other assays used living cells; also called WT-ErbB2; Her2
Put plainly: ELISA; ErbB2 captured from lysates of ErbB2-transfected CHO-K1 cells by an antibody to its cytoplasmic tail, His-tagged PEPD detected with anti-His.
From the text: as §1, with “Overexpression of human ErbB2 in CHO-K1 cells was readily achieved by gene transfection (FIG. 1b). […] Next, we removed the four ECD subdomains of human ErbB2 one at a time (FIG. 1d), using the ErbB2-expressing plasmid pCMV6-XL5-ERBB2 as a template. Similar” for “Similar”
as §3

Regarding “Recombinant human PEPD (peptidase D, prolidase), wild type, 6×His tagged at the carboxy terminus (from UniProt P12955 1-493)”, the Kd in assay [1] amounted to 372 nM; in assay [2], 25.9 nM.

B1: Recombinant human PEPD (peptidase D, prolidase), wild type, 6×His tagged at the carboxy terminus (ligand)
chain: MAAATGPSFWLGNETLKVPLALFALNRQRLCERLRKNPAVQAGSIVVLQGGEETQRYCTDTGVLFLQESFFHWAFGVTEPGCYGVIDVDTGKSTLFVPRLPASHATWMGKIHSKEHFKEKYAVDDVQYVDEIASVLTSQKPSVLLTLRGVNTDSGSVCREASFDGISKFEVNNTILHPEIVESRVFKTDMELEVLRYTNKISSEAHREVMKAVKVGMKEYGLESLFEHYCYSRGGMRHSSYTCICGSGENSAVLHYGHAGAPNDRTIQNGDMCLFDMGGEYYSVASDITCSFPRNGKFTADQKAVYEAVLLSSRAVMGAMKPGDWWPDIDRLADRIHLEELAHMGILSGSVDAMVQAHLGAVFMPHGLGHFLGIDVHDVGGYPEGVERIDEPGLRSLRTARHLQPGMVLTVEPGIYFIDHLLDEALADPARASFLNREVLQRFRGFGGVRIEEDVVVIDSGIELLTCVPRTVEEIEACMAGCDKAFTPFSGPKHHHHHH
notes: Made in bacteria (pBAD/Thio-TOPO, without the N-terminal Thio) and purified on nickel; also called WT-PEPD; rhPEPD
B1: the values for the binding result in assay [3], in assay [4] and in assay [5] were “no binding (tested: 1 µM PEPD)”, “no binding (tested: PEPD 1 µM with 0.04 µM ErbB4/ECD-Fc)” and “no binding (tested: PEPD 1 µM with 0.04 µM ErbB3/ECD-Fc)”, respectively. Further, the entries for the “fold reduction of binding affinity against wild-type ErbB2” value in assay [6] and in assay [7] were 3.5 fold and 51 fold, respectively. In assay [8], this molecule displayed a dissociation constant (Kd) of 7.3 nM.
